# Where a chain is given by its changes, count along the chain named.
# B1: Humanized CD27 131A VH6/VL7-hIgG1 (antibody, V domains shown)
# VH: EIQLVQSGAEVKKPGASVKVSCKASGYTFTNYGMNWVKQAPGQGLKWMGWINTNTGEPTYAEEFKGRFTFTLDTSISTAYMELSSLRSEDTAVYYCAREGDAMDYWGQGTTVTVSS
# VL: EIVLTQSPATLSLSPGERATLSCSASSSVSYMHWYQQKPGQAPKRWIYDTSKLASGVPARFSGSGSGTSYSLTISSLEPEDFATYYCQQWNSYPFTFGQGTKLEIK
# notes: human IgG1 constant region; also called hCD27.131A VH6VL7 hulgG1
# B2: Humanized CD27 131A VH9/VL9-hIgG1 (antibody, V domains shown)
# VH: B1 VH with K38R, I76A
# VL: DIQLTQSPSTLSASVGDRVTITCSASSSVSYMHWYQQKPGKAPKRWIYDTSKLASGVPARFSGSGSGTDYTLTISSLQPEDFATYYCQQWNSYPFTFGQGTKLEIK
# notes: human IgG1 constant region; also called hCD27.131A VH9VL9 hulgG1
# B3: Humanized CD27 131A VH8/VL8-hIgG1 (antibody, V domains shown)
# VH: B1 VH with S88N
# VL: B1 VL with L13A, A19V, S69D, L77M, T84V
# notes: human IgG1 constant region; also called hCD27.131A VH8VL8 hulgG1
# B4: Humanized CD27 131A VH8/VL6-hIgG1 (antibody, V domains shown)
# VH: B1 VH with S88N
# VL: B1 VL with S69D, T84V
# notes: human IgG1 constant region; also called hCD27.131A VH8VL6 hulgG1
# B5: Humanized CD27 131A VH6/VL8-hIgG1 (antibody, V domains shown)
# VH: B1 VH
# VL: B1 VL with L13A, A19V, S69D, L77M, T84V
# notes: human IgG1 constant region; also called hCD27.131A VH6VL8 hulgG1
# B6: Humanized CD27 131A VH7/VL7-hIgG1 (antibody, V domains shown)
# VH: B1 VH with V20I, I76A, S77T, M81L, L83I
# VL: B1 VL
# notes: human IgG1 constant region; also called hCD27.131A VH7VL7 hulgG1
# B7: Humanized CD27 131A VH7/VL6-hIgG1 (antibody, V domains shown)
# VH: B1 VH with V20I, I76A, S77T, M81L, L83I
# VL: B1 VL with S69D, T84V
# notes: human IgG1 constant region; also called hCD27.131A VH7VL6 hulgG1
# B8: Humanized CD27 131A VH8/VL7-hIgG1 (antibody, V domains shown)
# VH: B1 VH with S88N
# VL: B1 VL
# notes: human IgG1 constant region; also called hCD27.131A VH8VL7 hulgG1
# B9: Humanized CD27 131A VH7/VL8-hIgG1 (antibody, V domains shown)
# VH: B1 VH with V20I, I76A, S77T, M81L, L83I
# VL: B1 VL with L13A, A19V, S69D, L77M, T84V
# notes: human IgG1 constant region; also called hCD27.131A VH7VL8 hulgG1
# Experiments:
# [1] = biological target: human CD27 (wild type), expressed on cells (human) (UniProt P26842); assay: flow cytometry, transiently transfected CHO-K1; empty vector: + 5.32
# [2] = biological target: human CD27 (A59T), expressed on cells (human) (UniProt P26842); assay: as above
# [3] = biological target: human CD27 (wild type), expressed on cells (human) (UniProt P26842); assay: flow cytometry, transiently transfected CHO-K1; empty vector: GM FITC 212
# [4] = biological target: human CD27 (A59T), expressed on cells (human) (UniProt P26842); assay: as above
# [5] = biological target: T1, human CD27 (wild type), expressed on cells (human, UniProt P26842 21-260); assay: flow cytometry on primary T cells
# T1 construct: on transfected CHO-K1 / CHOK1 cells, transfected HEK293FT reporter cells or primary human T cells; also called hCD27; HsCD27
# Experimental: Labeled cells were washed by re-suspending them in 150 ul of staining buffer (SB) followed by centrifugation at 300 g for 5 minutes. Cells were then resuspended in 100 ul of SB containing primary anti-CD27 antibodies at various concentrations, incubated in the dark at 4° C. for 30 minutes, followed by washing and centrifugation steps as previously described. […] Cells were incubated for 30 minutes at 4° C. in the dark, followed by washing and centrifugation steps. Next, cells were stained with a cocktail of phenotypic antibodies for surface markers (CD3, CD4, CD8, CD11b) and incubated for 30 minutes at 4° C. in the dark, followed by washing and centrifugation steps. […] Samples were acquired in a LSR-Fortessa flow cytometer (BD Biosciences) using the high throughput sampler and data analyzed by FlowJo software (Tree Star Inc).
Molecule,EC50 above that of 131AVH6VL6-hIgG1 [5],other results
Fc-mCD70 (Fc fusion),–,cells in the + gate [1]: 58.9%; cells in the + gate [2]: 52.5%; GM FITC [3]: 1280; GM FITC [4]: 1060
B1,≤ 10%,–
B2,≤ 10%,–
B3,≤ 10%,–
B4,≤ 10%,–
B5,≤ 10%,–
B6,≤ 10%,–
B7,≤ 10%,–
B8,≤ 10%,–
B9,≤ 10%,–

# Reference: patent US20190300618A1 (Merck Sharp & Dohme, published 2019)
